For test [1], the target named is T1, CD3ed (CD3 epsilon/delta fusion protein) (human).
T1 construct: Expressed in HEK293 and purified on His60 resin and by SEC; also called soluble human CD3ed antigen; hCD3ed
T1 chain: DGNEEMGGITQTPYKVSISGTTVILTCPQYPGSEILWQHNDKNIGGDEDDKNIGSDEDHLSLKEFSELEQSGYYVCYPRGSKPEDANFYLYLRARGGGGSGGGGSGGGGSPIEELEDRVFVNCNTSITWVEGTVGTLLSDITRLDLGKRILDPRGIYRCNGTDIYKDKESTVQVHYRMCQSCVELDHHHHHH
Briefly: SPR, recombinant human CD3. A general note: SPR reads the build-up and loss of mass on a sensor chip optically.

Test [2] concerns the target T2, human CD3 epsilon subunit (CD3e), as cell surface CD3 on Jurkat cells and on naive human T cells (human, UniProt P07766 23-207). Briefly: cell-based or functional assay.
Test [3] addresses T2, human CD3 epsilon subunit (CD3e), as …. The test is described as follows: flow cytometry titration on naive human T cells (PE-A Geo Mean against Ab in nM); Kd printed beside the legend.
Test [4] shares this target. The test is described as follows: flow cytometry, cell surface binding to human CD3 on naive human T cells. The text has this: Purified CD3 bispecific antibodies were titrated for cell surface binding to human CD3 on naïve human T cells purified from fresh human peripheral blood mononuclear cells (PBMCs), using the standard flow cytometry methods known in the art using BD LSRII Fortessa analyzer.
In general terms: Flow cytometry measures light scatter and fluorescence of single cells or particles in a stream.

The target is the same in test [5]. The test is described as follows: FACS on Jurkat cells expressing CD3, monovalent IgG. The protocol: All the mutants were generated as monovalent IgG antibodies using standard transient HEK293 expression followed by purification using Protein A column. The resulting clones were tested for binding to Jurkat cells expressing CD3 using FACS and self-association potential using AC-SINS as described above in Example 7. As shown in Table 16, five molecules with improved epivax score and reduced T-cell epitopes and retained affinity to CD3 were chosen to move forward and test in diabody-Fc format. The 2B5v6 variants with improved epivax scores were compared to the parental 2B5v6.
Target sequence in this assay (P07766 23-207 limits assumed): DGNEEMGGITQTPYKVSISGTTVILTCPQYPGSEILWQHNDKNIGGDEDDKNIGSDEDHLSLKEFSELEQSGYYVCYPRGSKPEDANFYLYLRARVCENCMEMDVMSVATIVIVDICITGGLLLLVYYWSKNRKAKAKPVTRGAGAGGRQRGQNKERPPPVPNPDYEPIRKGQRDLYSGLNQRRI

For test [6] the target is unchanged. Briefly: FACS on Jurkat cells expressing CD3.

Residue numbers refer to the chain shown, from its start.

B1: GUCY2C-1679 bispecific antibody (bispecific antibody)
chain 1: DIQLTQSPSSLSASVGDRVTITCRASESVDYYGSSLLQWYQQKPGKAPKLLIYAASKLASGVPSRFSGSGSGTDFTLTISSLQPEDFATYYCQQTRKAYTFGQGTKLEIKGGGSGGGGEVQLVESGGGLVQPGGSLRLSCAASGFTFSDYYMTWVRQAPGKGLEWVAFIRNQARGYTSDHNPSVKGRFTISRDNAKNSLYLQMNSLRAEDTAVYYCARDRPSYYVLDYWGQGTTVTVSSGCPPCPAPEAAGAPSVFLFPPKPKDTLMISRTPEVTCVVVDVSHEDPEVKFNWYVDGVEVHNAKTKPREEQYNSTYRVVSVLTVLHQDWLNGKEYKCKVSNKALPAPIEKTISKAKGQPREPQVCTLPPSREEMTKNQVSLWCLVKGFYPSDIAVEWESNGQPENNYKTTPPVLDSDGSFFLYSKLTVDKSRWQQGNVFSCSVMHEALHNHYTQKSLSLSPG
chain 2: DIQMTQSPSSLSASVGDRVTITCTSSQSLFNVRSGKNYLAWYQQKPGKAPKLLIYWASDRESGVPSRFSGSGSGTDFTLTISSLQPEDFATYYCKQSYDLFTFGGGTKVEIKGGGGSGGGGEVQLVESGGGLVQPGGSLRLSCAASGFTFSSYWMHWVRQAPGKGLEWIGEIKPSNELTNVHEKFKDRFTISVDKAKNSAYLQMNSLRAEDTAVYYCTRTITTTEGYWFFDVWGQGTLVTVSSGCPPCPAPEAAGAPSVFLFPPKPKDTLMISRTPEVTCVVVDVSHEDPEVKFNWYVDGVEVHNAKTKPREEQYNSTYRVVSVLTVLHQDWLNGKEYKCKVSNKALPAPIEKTISKAKGQPREPQVYTLPPCREEMTKNQVSLSCAVKGFYPSDIAVEWESNGQPENNYKTTPPVLDSDGSFFLVSKLTVDKSRWQQGNVFSCSVMHEALHNHYTQKSLSLSPG
notes: Bispecific diabody-Fc; also called GUCY2c bispecific with CD3 variant 2B5-1040
One may read the Kd as the constant that tells how readily two partners part at equilibrium. Turning to B1, the Kd in test [1] was 72 nM. Moreover, in test [2], the “In vitro Cytotoxicity” value was found to be 0.194 nM.

B2: GUCY2c-H2B4 bispecific antibody (bispecific antibody, human IgG1)
chain 1: B1 chain 1 with S34T, L37M, A47P, K57N, L58V, A59E, A98V, Q172R
chain 2: DIVMTQSPDSLAVSLGERATINCKSSQSLFNVRSRKNYLAWYQQKPGQPPKLLISWASTRESGVPDRFSGSGSGTDFTLTISSLQAEDVAVYYCKQSYDLFTFGSGTKLEIKGGGSGGGGEVQLVESGGGLVQPGGSLRLSCAASGYTFTSYWMHWVRQAPGKGLEWIGEIKPSNGLTNYIEKFKNRFTISVDKAKNSAYLQMNSLRAEDTAVYYCTRTITTTEGYWFFDVWGQGTLVTVSSGCPPCPAPEAAGAPSVFLFPPKPKDTLMISRTPEVTCVVVDVSHEDPEVKFNWYVDGVEVHNAKTKPREEQYNSTYRVVSVLTVLHQDWLNGKEYKCKVSNKALPAPIEKTISKAKGQPREPQVYTLPPCREEMTKNQVSLSCAVKGFYPSDIAVEWESNGQPENNYKTTPPVLDSDGSFFLVSKLTVDKSRWQQGNVFSCSVMHEALHNHYTQKSLSLSPG
notes: Bispecific diabody-Fc (knob-in-hole, effector null human IgG1 Fc)
B2 displayed a Kd in test [3] of 8.18 nM.

B3: GUCY2c-2B5 bispecific antibody (bispecific antibody, human IgG1)
chain 1: B1 chain 1 with S34T, L37M, A47P, K57N, L58V, A59E, A98V, Q172R
chain 2: DIQMTQSPSSLSASVGDRVTITCTSSQSLFNVRSRKNYLAWYQQKPGKAPKLLIYWASTRESGVPSRFSGSGSGTDFTLTISSLQPEDFATYYCKQSYDLFTFGGGTKVEIKGGGSGGGGEVQLVESGGGLVQPGGSLRLSCAASGYTFTSYWMHWVRQAPGKGLEWIGEIKPSNGLTNYIEKFKNRFTISVDKAKNSAYLQMNSLRAEDTAVYYCTRTITTTEGYWFFDVWGQGTLVTVSSGCPPCPAPEAAGAPSVFLFPPKPKDTLMISRTPEVTCVVVDVSHEDPEVKFNWYVDGVEVHNAKTKPREEQYNSTYRVVSVLTVLHQDWLNGKEYKCKVSNKALPAPIEKTISKAKGQPREPQVYTLPPCREEMTKNQVSLSCAVKGFYPSDIAVEWESNGQPENNYKTTPPVLDSDGSFFLVSKLTVDKSRWQQGNVFSCSVMHEALHNHYTQKSLSLSPG
notes: Bispecific diabody-Fc (knob-in-hole, effector null human IgG1 Fc); also called GUCY2c-0250
As to B3, binding in test [3] was put at a Kd of 13.2 nM.

B4: GUCY2C-1678 bispecific antibody (bispecific antibody)
chain 1: B1 chain 1
chain 2: B1 chain 2 with S26D
notes: Bispecific diabody-Fc; also called GUCY2c bispecific with CD3 variant 2B5-1038
Regarding B4, in test [1], the Kd came to 63.5 nM. Also, the “In vitro Cytotoxicity” value in test [2] came out at 0.247 nM.

B5: GUCY2C-1680 bispecific antibody (bispecific antibody)
chain 1: B1 chain 1
chain 2: B1 chain 2 with Q27E
notes: Bispecific diabody-Fc; also called GUCY2c bispecific with CD3 variant 2B5-1039
Regarding B5, in test [1], the equilibrium dissociation constant (Kd) came out at 78.6 nM. Also, the “In vitro Cytotoxicity” value in test [2] amounted to 0.385 nM.

B6: GUCY2C-1608 (GUCY2c-2B5v6) bispecific antibody (bispecific antibody)
chain 1: B1 chain 1
chain 2: B1 chain 2 with G35Q, D59T
notes: Bispecific diabody-Fc
For orientation: EC50 means the midpoint of the concentration-response curve. Read a high EC50 as weaker potency. In the case of B6, the concentration for a half-maximal effect (EC50) in test [4] is 35.4 nM. Also, the Kd in test [1] is 128 nM. Further, in test [2], the “In vitro Cytotoxicity” value was 0.772 nM.

B7: 2B5v6-0517 (antibody, V domains shown)
VH: EVQLVESGGGLVQPGGSLRLSCAASGFTFSDYYMTWVRQAPGKGLEWVAFIRNQARGYTSDHQPSVKGRFTISRDNAKNSLYLQMNSLRAEDTAVYYCARDRPSYYVLDYWGQGTTVTVSS
VL: DIQMTQSPSSLSASVGDRVTITCTSSQSLFNVRSGKNYLAWYQQKPGKAPKLLIYWASTRESGVPSRFSGSGSGTDFTLTISSLQPEDFATYYCKQSYDLFTFGGGTKVEIK
notes: Tested as a monovalent IgG; also called 2B5-0517
In the case of B7, in test [5], the EC50 amounted to 9.9 nM.

B8: 2B5-0006 (2B5v6) (antibody, V domains shown)
VH: B7 VH with Q63N
VL: B7 VL with G35Q
notes: also called h2B5v6; parental 2B5v6
Consider B8, for which the EC50 in test [6] is 9.8 nM.

B9: 2B5v6-0533 (antibody, V domains shown)
VH: B7 VH with Q63N
VL: B7 VL
notes: Tested as a monovalent IgG; also called 2B5-0533
As for B9, the EC50 in test [5] stood at 6.1 nM.

B10: 2B5v6-0538 (antibody, V domains shown)
VH: B7 VH with Q63N
VL: B7 VL with G35Q, T59D
notes: Tested as a monovalent IgG; also called 2B5-0538
With B10, the half-maximal effective concentration (EC50) in test [5] was 9.2 nM.

B11: 2B5v6-0522 (antibody, V domains shown)
VH: B7 VH
VL: B7 VL with G35Q, T59D
notes: Tested as a monovalent IgG; also called 2B5-0522
For B11, a half-maximal response in test [5] (EC50) required 8.6 nM.
